Reference: the DeepSol protein solubility set

Assay: soluble on expression in E. coli; label from the status in PepcDB or PDB records

Sequence: MGSDKIHHHHHHMNILNIYNEFDINNFDLSVDHYGSEKCDRGYSFGPTIRDNYVIHFILEGKGKLTINQHTLDLAAGDIFLLPKDISTFYQADLQMPWSYIWIGFSGSKAENILKQSSLFKRFYCHSGRSSKLFSQMMTIIQFANTPLTSVNELLMVGELYKLLAALIEEFPLSHLEESNSSTKAYVNQVKKIIHSQYGSSLRVNDIAKKLNLSRSYLYKIFRKSTNLSIKEYILQVRMKRSQYLLENPKLSIAEISNSVGFSDSLAFSKAFKNYFGKSPSKFRKEIQNN
- soluble on expression in E. coli: not soluble

Sequence: MGHHHHHHSHMMQESGTETKSNGSAIQNGSGGSNHLLECGGLREGRSNGETPAVDIGAADLAHAQQQQQQWHLINHQPSRSPSSWLKRLISSPWELEVLQVPLWGAVAETKMSGPVCQPNPSPF
- soluble on expression in E. coli: not soluble

Sequence: MTDKKPVIVYGVSGYTGRLVCEYLREFNIPFIAAGRDKKRIQEVLDRIPGLDTVDHEVVEVEHTVPALTELFSGARVVSNMVGPFIKHGAIVVEAALAAGCHYTDTTGEQDWVLDVQAKFGEKFAEKGLLLSPGVAQMYTTGEIAANIAL
- soluble on expression in E. coli: not soluble

Sequence: MTINYQFGDVDAHGAMIRAQAGSLEAEHQAIISDVLTASDFWGGAGSAACQGFITQLGRNFQVIYEQANAHGQKVQAAGNNMAQTDSAVGSSWA
- soluble on expression in E. coli: not soluble

Sequence: MAHHHHHHMSATPPPPPPPSSNASTGYPHTRASPGTYRGAGRGAYSRGPSYQSSGSSPSSSPIYTSGPSRRGGGNTRVRVHTYGFVHADPAASLAAAPPASHTSAPRATPDVATPPLPSASSAASPPLSSISSDVLSSLNASVQESLSGYLYTDAIELAQRLFDLEASYAHLHLLAHCYTVSGATGTAYRLLQHYYPFLELHVTRPRTAGASTSAAGGAAGGVGSGVLPFDARRTWTASYGVHPSQHPFSSGMPSATAAVTFSASSNENNLTSDEFELGYETVDLQSQWDCQYLLGVCCYRTQHYEDGARVLSQLLYVCHQVTTTSSVLRRRLQQLRQQQQQVTVRSDTSEEDDAGVAAAVRATERQLAGLCLRDGGAHFAGALLVGSVREASPAAPDRG
- soluble on expression in E. coli: not soluble

Sequence: MGSDKIHHHHHHMSGKGAEYWTKRISEQEMPALSSTVKTLEKLAKDDVSSLAILGRSVMHDNALTSRILKVANSAIYNKGISHVTTVSRAAVVLGFDTIRNICITAKLLSSLLENKGLSEPVYHRLLTLMARAFQAAMLAKMMLKDHDEELQEEVFIAALLYHLGESAFWSMGGETTEQLDARLNQVDEKDANNVVREVLGTSFTQLSMGIAKNWGLGEVLVKSLSNPNERTPEIRSIYLANKISELMASDSKDIAELNHRIKQAADMLDLEVDEFKGRMIQCSHATRKLADTYGAKVLVAFLPDTHQLTLAAEPEAEPIKVREFNVDLQLKKLRELTDCAINKANFNEVITITLSGLLDGIGMDRCAVMLLSPNRKRLQPRVVLGENGDKMKNEFIVELNHDKNVFAESVDLKKPLFIDNPSSEKWRLYTDEELRRHTSVMGFMLAPILVDNKVIGLLYADRHSSERKLAEVDFERFTHFAQLTNLCLSVSVH
- soluble on expression in E. coli: not soluble

Sequence: MLPRLGGFLAGFSSTISSFLPKTTASTLFTHQSSQFSTSFPAWRNNFLQFIHYRNGPPKRRARSKDKSAISGYSHYKGIVLKTVIRHPKKPNSGNRKCAIVRLSTGAEVCAYIPNVGHNLQEHSQVLVKGGRRRDLISVKANIVRGKYDCAPAGGRK
- soluble on expression in E. coli: not soluble

Sequence: MWKWEAENDAKGVVVIAHNILEHTGRYAYVITMLRRNGYHVIMGDLPGQGQTSRANKGQIENFQTYHESLLDWLKIANEYKIPTYVLGVGLGGLILLNLLEKVELPIEGMMLISPMLELQKNGKNRKDKLVSNIGKISKDTRFNVGVEPKDLTRNLEIVEETVNDGLMLKKATYHWYNTINETMKDTMAHIHDIQPMPTLLMYGTKDLIVDTRAIDEFKEKYQTPELYFKAWQGFYHEVHNEPERDEVMRYILTFLNNSVN
- soluble on expression in E. coli: not soluble

Sequence: MSLQELPVPKPHQLKWHEAEMGAVFHYDLHVFDGIRYGQGNNRINPIEDYNIFNPTELNTDQWVQAAKAAGCKFAVLTATHETGFGLWQSDVNPYCLKAVKWRDGKGDIVRDFVNSCRKYGLQPGIYIGIRWNSLLGIHNFKAEGEGAFARNRQAWYKRLCEKMVTELCTRYGDLYMIWFDGGADDPRADGPDVEPIVNKYQPNCLFYHNIDRADFRWGGSETGTVEYPCWSTFPVPCSHHKRIESSIDQLELLKHGDKNGRYWVPAMADTPLRGANGRHEWFWEPDDENNIYPLNTLMDKYEKSVGRNATLILGLTPDPTGLIPAGDAQRLKEMGDEINRRFSSPIARISGQKKSLTLKLGKEQSVNYCIIQENIKNGERIRQYQIEAKVNGKWQTVCKGESVGHKRIEKFEPVEATALRLTVSESIALPDIINFSAYSVKEGHHHHHH
- soluble on expression in E. coli: soluble

Sequence: GMEPIMRNPEDALLDSWHQNAQAWIDAVRHGAIESRRQVTDQAILLAILGRQPERVLDLGCGEGWLLRALADRGIEAVGVDGDRTLVDAARAAGAGEVHLASYAQLAEAKVPVGKDYDLICANFALLHQDIIELLSAMRTLLVPGGALVIQTLHPWSVADGDYQDGWREESFAGFAGDWQPMPWYFRTLASWLNALDMAGLRLVSLQEPQHPQSAVPQSLLMVAERH
- soluble on expression in E. coli: soluble

Sequence: MNDEDSEERRHHPKVPRLARQSHPEPPGPSSSTSSTPLFTDPTIHTILDQIGQRLASFSESDVKRIKNYLSTVTVTQEACVLLLLPNKEREKLMFAEIERHILENYEYSMIIHRYVNDVLKHAIETQFVNPDKLDESNDAWKDGLKMISEQKMRSSRYTAARARSQRFAIANDSYFPRPEIVPSTDHPVFASRPSVSTQEVRTGRQQIDQEVSGRKREFHGKLIPITGVVEEPSVRINAELQQSETQQIGDSSDQTDTATPISDIATHQDPENEISPSVTEGSNDIADDAGAGDDFSESTTGAVQPEQQASEHSNSEGVEKSSCAESLKEQPDQSSPAVSNTVSENSNTDSEICSGIDQNPNSDNLESTIDVGEPLRNTSDQPSPDPCSDVQIGVNSTTKQSTDPSVNVQLGHKSSDQPSTDPSAHAQLEDNCTIQPSTDPSSNDQLGDNTSDQNSTDPSSDVPMEDPGESGSAASTPPPDWDVAEVPIPQCSGHSDGNIGGTNEVTPPEQEAQVLAPRRSERSRIKNIWLSRDEVERLRYEFVPPPSRKDIPKCTAKKPEAEIPNVEPESSSTVESQRDEDQAVASASSVAEPLEEATTTSVPEPTEFQLSRDIYSTVKPTDEAHSPPIQAQPKKKATPRRKKADDVETVVADGTATIPKPKRKRPPRKKPEPKPNIVFETTPNPPTESFAANNNFQQFQFQNQPGSWTYNNGFGNGYGYGGGTTGYMDNLVGRGFDTVSQQPGFQNQGYEFTGLPANNSNNFPFL
- soluble on expression in E. coli: not soluble

Sequence: MSLDAVRAVLIDIDGVLTVSWKPLPGAIEALHRIRDASLGVVLLTNTTSRTRASIAATLGASGFPVSAEDILTAPTATAAHLTDHCPGARCSLLNSGDIREDLVGVTLLDDTDTVPDVVIVGGAGPEFDYAALNRVFGHLQRGARLVAMHRNLYWRTDRGLDLDSGAFLLGLEHAAGTRAEITGKPAPAFFEAALTRLGAGPGQAVMVGDDIESDVLAAQRTGITGVLVKTGKYLPETHHAASARPDHVLDSVADLPALLDSVVREGHHHHHH
- soluble on expression in E. coli: soluble

Sequence: MSMSSMSSPSSAVCSPDHFSPSDHLCYVQCNFCQTILAVNVPYTSLFKTVTVRCGCCTNLLSVNMRSYVLPASNQLQLQLGPHSYFNPQDILEELRDAPSNMNMMMMNQHPTMNDIPSFMDLHQQHEIPKAPPVNRPPEKRQRVPSAYNRFIKEEIQRIKAGNPDISHREAFSAAAKNWAHFPHIHFGLVPDNQPVKKTNMPQQEGEDNMVMKEGFYAPAAANVGVTPY
- soluble on expression in E. coli: soluble

Sequence: MRERGVAFFSGGKDGLYALYLAEKEGIEVPYLLTLKTSIGLSPHWENLSSLKALAENMGKKLLTFDMKYGSKALAEFISSLDVDYIIAGDVFLEDHLKWINLLAEKAGIKSFEPLWGKNTLELAKEMLNAGFKYSIIAVDKNKLEKTWLGYTFSSTRDIEIFIYENPTIDPLGEGGEFHTITLSSPLFKDEFTLEKISVEESERYWWMRFRVVGNDIKNVRVKGHNSRKDGLEHHHHHH
- soluble on expression in E. coli: soluble

Sequence: MGSDKIHHHHHHMLSRQGEYKSWEITEAVLPVASNQEEAKNILTDTNVATITKFYGRYQDFMEMPAPAEKVAEYLNAHALWFSRCAEPMKVQLLGENGYALVIGRFGAFGYEVEPKIGLELLPPEEGIYRIRTIPIPDYQSPGYDVDYRASLQLIENDACSSGEVTRVEWELDLIVDLHFPRFIQRLPKSIIQSTGDRLLNQIVRQVSRRLTRKVQQDFQKSLEIPFSGNSKQKR
- soluble on expression in E. coli: not soluble

Sequence: MSRETNFNGTKRKRSDVAEKVAQRWKSVRYSAEMENMAPVNSNNDSDDCVIVSESKIIDLTNQEQDLSERIETNDTAKGAVFKLMKSDFYEREDFMGEVEDMITLKDIFGTETLKRSILFSFQYELDFLLRQFHQNVENITIVGQKGTIMPIEARAMDATLAVILKKVKLIEITMPPFASHHTKLIINFYDNGECKIFLPSNNFTSMETNLPQQVCWCSPLLKIGKEGLPVPFKRSLIEYLNSYHLKDIDELITKSVEEVNFAPLSELEFVYSTPSKFQSSGLLSFYNKLEKLSAGTSASDTAKHYLCQTSSIGTSLSRARDENLWTHLMIPLFTGIMSPPAKDTAGRKKAEILPTNSLINEYSQRKIKPYIIFPTEQEFVTSPLKWSSSGWFHFQYLQKKSYYEMLRNKFKVFYKQDPAMVTRRRGTTPAHSKFYMHCATNSAGPCDASQVFKELEWCLYTSANLSQTAWGTVSRKPRNYEAGVLYHSRRLANTRKVTCRTFTRDRRGCAGNPTHVAVPFTLPVIPYDLAEDECFCLARHEND
- soluble on expression in E. coli: soluble

Sequence: MEILRRECGAVEENAYIVKLSSGIDFIIDPGFSSSEWVLENAKNPKAILITHGHYDHVWDGAQLSKLLKNTPIYAPKDDVFMLENDIFHLGMPVFSPNFSVPCNKGCTTLEIANTTIKYWHFPGHTPGCSIIEIEGVIFSGDFIFYRSIGRYDFPYSNEKDMKESLLRFQNLDFPKDIEIYPGHGDKTSFFAEREHSKIWVSRMALEHHHHHH
- soluble on expression in E. coli: not soluble

Sequence: MDYKEIVFDVDNTLIDTEYAILHSLQDTIKQINRKIIPIKELSFALGITGEDALRYLKIEDITIALSMWDRNMEKYKNTVLVFKEIKEMLTEIIKLNIGIGIVTSKTHEEFRNDFLSFDIAPYFNTVVCSNDTLEHKPKAVPLLKYMELTKCQNNELLYIGDSIYDMQCAYRANVDFGLVKWGSGDRVSTVISFTTPLDLIRQLSVSSN
- soluble on expression in E. coli: not soluble

Sequence: MLKTPSDAAVAGCLSLLLEVSGNPKAGNVDREHDFDDLKFEHFLASAAGAFPAFLEVAEKRIIGEGVLRAVKESMRWHRAENVHFGAFLLLVPLISSWDAG
- soluble on expression in E. coli: not soluble

Sequence: MIKVVVRKRPLSELEKKKKDSDIITVKNNCTLYIDEPRYKVDMTKYIERHEFIVDKVFDDTVDNFTVYENTIKPLIIDLYENGCVCSCFAYGQTGSGKTYTMLGSQPYGQSDTPGIFQYAAGDIFTFLNIYDKDNTKGIFISFYEIYCGKLYDLLQKRKMVAALENGKKEVVVKDLKILRVLTKEELILKMIDGVLLRKIGVNSQNDESSRSHAILNIDLKDINKNTSLGKIAFIDLAGSERGADTVSQNKQTQTDGANINRSLLALKECIRAMDSDKNHIPFRDSELTKVLRDIFVGKSKSIMIANISPTISCCEQTLNTLRYSSRVKNKGNSKLEGKPIPNPLLGLDSSRTGHHHHHH
- soluble on expression in E. coli: soluble

Sequence: FMAKLTSAVPVLTARDVAGAVEFWTDRLGFSRDFVEDDFAGVVRDDVTLFISAVQDQVVPDNTLAWVWVRGLDELYAEWSEVVSTNFRDASGPAMTEIGEQPWGREFALRDPAGNCVHFVAEEQD
- soluble on expression in E. coli: soluble

Sequence: RALIGRLPDGRADLLENFAAGPGLAQRFGERYPEHAGRDLRFIMELYHAGDTHARDYITATLAAAGETIAGFASAIDVDAIIIGGGVGNIGDAIIKPFAHGFAAHAIPPLDTIPIRQAQLGTDAPIVGAAHLGHSAIE
- soluble on expression in E. coli: not soluble
